B1: AVLPHVDQV (peptide)
peptide: AVLPHVDQV
B2: KITEAIQYV (peptide)
peptide: KITEAIQYV
B3: FLDNGPKTI (peptide)
peptide: FLDNGPKTI
B4: ILASLATSV (peptide)
peptide: ILASLATSV
B5: VLVPYEPPQV (peptide)
peptide: VLVPYEPPQV
B6: SLAESLDQA (peptide)
peptide: SLAESLDQA
B7: ALQEALENA (peptide)
peptide: ALQEALENA
B8: HLLGHLEQA (peptide)
peptide: HLLGHLEQA
B9: GQDVGRYQV (peptide)
peptide: GQDVGRYQV
B10: SILRHVAEV (peptide)
peptide: SILRHVAEV
B11: VLINTSVTL (peptide)
peptide: VLINTSVTL
B12: SLADSLYNL (peptide)
peptide: SLADSLYNL
B13: SIYEYYHAL (peptide)
peptide: SIYEYYHAL
B14: KLIDDVHRL (peptide)
peptide: KLIDDVHRL
B15: ALADGVVSQA (peptide)
peptide: ALADGVVSQA
B16: NIIELVHQV (peptide)
peptide: NIIELVHQV
B17: KVANIIAEV (peptide)
peptide: KVANIIAEV
B18: SLDENSDQQV (peptide)
peptide: SLDENSDQQV
B19: HLIAEIHTA (peptide)
peptide: HLIAEIHTA
notes: also called PTHL-001
B20: ALLDGGSEAYWRV (peptide)
peptide: ALLDGGSEAYWRV
B21: KVADYIPQL (peptide)
peptide: KVADYIPQL

target: T1, HLA-A*02:01 (human); test: UV-ligand exchange, anti-b2m ELISA; peptide exchange yield grade (+ >=10%, ++ >=20%, +++ >=50, ++++ >=75%)
T1 construct: Captured on streptavidin plates and detected with anti-b2m; also called peptide-receptive MHC molecules; MHC class I
From the text: Candidate peptides for T cell based therapies according to the present invention were further tested for their MHC binding capacity (affinity). The individual peptide-MHC complexes were produced by UV-ligand exchange, where a UV-sensitive peptide is cleaved upon UV-irradiation, and exchanged with the peptide of interest as analyzed. Only peptide candidates that can effectively bind and stabilize the peptide-receptive MHC molecules prevent dissociation of the MHC complexes. To determine the yield of the exchange reaction, an ELISA was performed based on the detection of the light chain (β2m) of stabilized MHC complexes. The assay was performed as generally described in Rodenko et al. (Rodenko et al., 2006).
96 well MAXISorp plates (NUNC) were coated over night with 2 ug/ml streptavidin in PBS at room temperature, washed 4× and blocked for 1 h at 37° C. in 2% BSA containing blocking buffer. Refolded HLA-A*02:01/MLA-001 monomers served as standards, covering the range of 15-500 ng/ml. Peptide-MHC monomers of the UV-exchange reaction were diluted 100 fold in blocking buffer. Samples were incubated for 1 h at 37° C., washed four times, incubated with 2 ug/ml HRP conjugated anti-β2m for 1 h at 37° C., washed again and detected with TMB solution that is stopped with […]. Absorption was measured at 450 nm. Candidate peptides that show a high exchange yield (preferably higher than 50%, most preferred higher than 75%) are generally preferred for a generation and production of antibodies or fragments thereof, and/or T cell receptors or fragments thereof, as they show sufficient avidity to the MHC molecules and prevent dissociation of the MHC complexes.

Row | peptide exchange yield [%] | Binder
1 | 50 to 75 | B1
2 | 50 to 75 | B2
3 | 50 to 75 | B3
4 | 50 to 75 | B4
5 | 20 to 50 | B5
6 | 50 to 75 | B6
7 | 20 to 50 | B7
8 | 50 to 75 | B8
9 | 20 to 50 | B9
10 | 20 to 50 | B10
11 | 50 to 75 | B11
12 | 20 to 50 | B12
13 | 50 to 75 | B13
14 | ≥ 75 | B14
15 | 50 to 75 | B15
16 | ≥ 75 | B16
17 | 20 to 50 | B17
18 | 50 to 75 | B18
19 | 50 to 75 | B19
20 | 50 to 75 | B20
21 | 50 to 75 | B21
